In article doi:10.1101/2022.12.29.522231 (bioRxiv, 2022) one finds Ki data, which are given here for one molecule.

As usually defined, the Ki is a dissociation constant, usually derived from enzyme kinetics or from competition with a known ligand. A high value points to weaker binding.

The target in test [1] is catalytic domain of MMP-3 (WT), activated (UniProt P08254 100-272). Briefly: enzyme inhibition assay.
For test [2], the target named is catalytic domain of MMP-14 residues 110-300 (human, UniProt P50281 110-300). As to the kind of experiment: enzyme inhibition assay.

Sequence of catalytic domain of MMP-3 (WT), activated (P08254 100-272): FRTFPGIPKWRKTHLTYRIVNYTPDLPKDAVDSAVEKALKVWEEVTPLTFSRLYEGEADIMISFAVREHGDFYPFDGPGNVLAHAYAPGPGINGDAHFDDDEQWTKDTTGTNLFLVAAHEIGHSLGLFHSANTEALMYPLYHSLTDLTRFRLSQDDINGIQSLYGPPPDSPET

B1: WT N-TIMP2 (N-terminal domain of tissue inhibitor of metalloproteinases-2), purified (domain or fragment, human, UniProt P16035 27-153, looked up)
chain: CSCSPVHPQQAFCNADVVIRAKAVSEKEVDSGNDIYGNPIKRIQYEIKQIKMFKGPEKDIEFIYTAPSSAVCGVSLDVGGKKEYLIAGKAEGDGKMHITLCDFIVPWDTLSTTQKKSLNHRYQMGCE
In the case of B1, the Ki in test [1] came out at 5.9 ± 0.7 nM; in test [2], 0.53 ± 0.1 nM.
